Measured values published in IntAct's records for PubMed 15841490.

B1: SH2 domain-containing protein 1A (Homo sapiens), O60880-1 (parent)
chain: MDAVAVYHGKISRETGEKLLLATGLDGSYLLRDSESVPGVYCLCVLYHGYIYTYRVSQTETGSWSAETAPGVHKRYFRKIKNLISAFQKPDQGIVIPLQYPVEKKSSARSTQGTTGIREDPDVCLKAP
partner: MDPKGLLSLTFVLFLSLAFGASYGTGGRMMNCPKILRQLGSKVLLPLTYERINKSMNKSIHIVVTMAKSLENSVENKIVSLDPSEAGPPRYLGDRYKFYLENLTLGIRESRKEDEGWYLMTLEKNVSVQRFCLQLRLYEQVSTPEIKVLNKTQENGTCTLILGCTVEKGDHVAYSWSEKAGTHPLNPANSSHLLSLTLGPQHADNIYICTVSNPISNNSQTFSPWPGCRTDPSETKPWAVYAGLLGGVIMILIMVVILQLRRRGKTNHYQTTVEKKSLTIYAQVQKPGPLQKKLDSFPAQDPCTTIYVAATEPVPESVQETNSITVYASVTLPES

Variants of: B1
Settings: with slaf1_human SLAMF1, Q13291

| effect of a mutation on the interaction | Variant |
| --- | --- |
| disrupting interaction strength | MDAVAVYHGKISRETDEKLLLATGLDGSYLLRDSESVPGVYCLCVLYHGYIYTYRVSQTETGSWSAETAPGVHKRYFRKIKNLISAFQKPDQGIVIPLQYPVEKKSSARSTQGTTGIREDPDVCLKAP [G16D] |
